Measurements as given in the supplement of paper PMC9732359.
± gives the uncertainty stated by the source.

Assay: protein stability index of a GFP-peptide fusion (yeast GPS) (PSI 1-4); higher = more stable; sorted into four equal gates, so the index is relative within each strain
Outline: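 Tiled 17-residue peptides from yeast proteins were fused downstream of GFP on a plasmid that also expresses Cherry, and the pooled library was carried in yeast. Mid-log cultures grown in leucine-free medium were sorted into four equal gates by GFP/Cherry fluorescence ratio. Plasmids from each gate were PCR-amplified and Illumina-sequenced, and reads were assigned to strains by barcodes. Each peptide's protein stability index is the sum, over gates, of the gate's read frequency multiplied by its gate number.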

Row | Sequence | protein stability index (doa10∆) | protein stability index (pdr5∆) | protein stability index (san1∆) | protein stability index (ubr1∆)
1 | GWDSLASRNVWSFYNGN [SNU114] | 2.99 ± 0.12 | 3.12 ± 0.077 | 3.48 ± 0.05 | 3.22 ± 0.066
2 | YGIFGEGVEYSFLHVDD [POP8] | 2.25 ± 0.084 | 2.31 ± 0.072 | 1.92 ± 0.12 | 2.71 ± 0.049
3 | AAIHAKRVTIQKKDIKL [HHT1] | 2.92 ± 0.086 | 3.04 ± 0.12 | 3.14 ± 0.091 | 3.1 ± 0.075
4 | TFLKYFGWLLSDNSVSV [IRR1] | 2.67 ± 0.14 | 2.4 ± 0.11 | 2.24 ± 0.097 | 2.66 ± 0.11
5 | KVPQQAAGKRISHIEKR [SMC1] | 3.04 ± 0.11 | 3.14 ± 0.12 | 2.97 ± 0.095 | 3.15 ± 0.12
6 | RGSLDSEHVFDYFFYFL [NUT1] | 2.8 ± 0.059 | 2.59 ± 0.042 | 2.71 ± 0.041 | 3.16 ± 0.032
7 | DDKVSVVEKEKIESLAG [UBP6] | 3.31 ± 0.2 | 2.84 ± 0.24 | 2.89 ± 0.17 | 3.37 ± 0.14
8 | DNTARVIFDASIKDTQN [BRN1] | 2.1 ± 0.078 | 2.06 ± 0.064 | 2.42 ± 0.1 | 2.68 ± 0.048
9 | KVWLDPNETSEIAQANS [RPL19A] | 3.16 ± 0.23 | 3.69 ± 0.24 | – | 3.04 ± 0.29
10 | VEEYTWSSLLNEGLVEY [RPB2] | – | 3.2 ± 0.18 | 3.11 ± 0.089 | –
11 | SYEKNEDHVEDHRKRKK [LIN1] | 3.25 ± 0.1 | 3.36 ± 0.1 | 3.38 ± 0.084 | 3.21 ± 0.054
12 | NDTISEDILQGIFNLLN [NUT1] | 2.38 ± 0.066 | 2.32 ± 0.057 | 2.13 ± 0.12 | 2.6 ± 0.088
13 | DNMITGVTKGYKYKMRY [RPL9A] | 3.07 ± 0.096 | 3.3 ± 0.14 | 2.92 ± 0.27 | 3.1 ± 0.067
14 | VLMETKNTQSPQTPLVE [SNU114] | 2.95 ± 0.16 | 2.93 ± 0.12 | 2.67 ± 0.087 | 2.96 ± 0.11
15 | AATVRSTIRRLREMVEA [RPL43A] | 3.02 ± 0.084 | 2.8 ± 0.056 | 2.74 ± 0.086 | 3.09 ± 0.064
16 | TDGVIGSRTTTNHVLEV [RPO31] | 3.17 ± 0.094 | 3.62 ± 0.094 | 3.19 ± 0.13 | 3.54 ± 0.088
17 | GKTDYYQRKRLVTQHKA [RPL5] | – | – | – | 3.69 ± 0.22
18 | NRAARDRRAQRVAEKRD [RPL19A] | 2.94 ± 0.12 | 2.69 ± 0.082 | 2.85 ± 0.089 | 3.19 ± 0.06
19 | GDPFDYKAQADTFYMNV [RPB3] | 3.4 ± 0.1 | 3.44 ± 0.1 | 3.33 ± 0.063 | 3.36 ± 0.083
20 | GKEHIVAALVSLTEKFS [ECM29] | 1.73 ± 0.047 | 1.95 ± 0.055 | 1.58 ± 0.084 | 1.63 ± 0.042

Row | Sequence | protein stability index (doa10∆) | protein stability index (pdr5∆) | protein stability index (san1∆) | protein stability index (ubr1∆)
21 | EDFEHNNLSSMNLDFDI [MCD1] | 2.76 ± 0.053 | 3.24 ± 0.061 | 3.24 ± 0.04 | 3.24 ± 0.033
22 | SSFEENNDLESVSMLLQ [RRI2] | 2.98 ± 0.071 | 3.23 ± 0.063 | 3 ± 0.048 | 3.13 ± 0.039
23 | YSKAAEPHAVSLAWSAD [ASC1] | 2.81 ± 0.19 | 2.87 ± 0.084 | 2.8 ± 0.065 | 2.72 ± 0.078
24 | NVSNTFNKTTNIDINNE [YJL041W/NSP1] | 3.1 ± 0.068 | 3.28 ± 0.065 | 2.68 ± 0.073 | 3.08 ± 0.051
25 | VLQNVFKLVSTPSSNSN [MED1] | 1.44 ± 0.04 | 1.67 ± 0.041 | 1.5 ± 0.072 | 1.36 ± 0.038
26 | PQIRQEIEQLDQYIQKQ [YGL172W/NUP49] | 2.7 ± 0.061 | 2.76 ± 0.046 | 2.54 ± 0.054 | 2.78 ± 0.049
27 | KINSWDQVLVKGGEQIS [YJL041W/NSP1] | 2.04 ± 0.087 | 2.56 ± 0.085 | 3.29 ± 0.087 | 2.21 ± 0.073
28 | LSAPLSKELRAQYGIKA [RPL26A] | 2.91 ± 0.14 | 2.31 ± 0.12 | 3.48 ± 0.12 | 1.87 ± 0.15
29 | DLKIEKLVLNISVGESG [RPL11A] | 2.81 ± 0.12 | 2.66 ± 0.095 | 2.52 ± 0.09 | 1.89 ± 0.09
30 | DSSGVNDLHHSEKKYAE [RPN3] | 2.69 ± 0.11 | 3.24 ± 0.16 | 2.88 ± 0.21 | –
31 | PVLSTIAFLVGLVNPKT [SWI3] | 2.98 ± 0.085 | 2.52 ± 0.058 | 2.33 ± 0.066 | 2.86 ± 0.042
32 | IVRDLDRPGSKFHKREV [RPL3] | 3.07 ± 0.14 | 3.44 ± 0.28 | 2.92 ± 0.3 | 3.14 ± 0.16
33 | SGYNQEDSMIMNQSSID [RPB2] | 2.46 ± 0.11 | 2.67 ± 0.12 | – | 2.84 ± 0.067
34 | VTRFDEKQIEELLDNCI [SRB6] | 2.9 ± 0.21 | – | 3.21 ± 0.16 | 3.33 ± 0.12
35 | GAIIGWTRGTGLMSANN [FAS2] | 2.89 ± 0.087 | 2.83 ± 0.083 | 3.08 ± 0.091 | 2.78 ± 0.29
36 | TIKDLVGGKSTVQNEIL [FAS2] | 3.03 ± 0.073 | 2.92 ± 0.1 | 2.21 ± 0.1 | 3.24 ± 0.11
37 | PRDLLRVIIQELRFPSP [PRP28] | 1.74 ± 0.047 | 1.94 ± 0.055 | 1.78 ± 0.064 | 1.72 ± 0.061
38 | DHDDSTDDADDHINWEH [NSL1] | 3.31 ± 0.088 | 3.31 ± 0.094 | 3.26 ± 0.056 | 3.35 ± 0.04
39 | YLYCLDNNITEMLEENF [YCG1] | 2.3 ± 0.05 | 2.32 ± 0.046 | 2.63 ± 0.05 | 2.73 ± 0.039
